Experimental data from PMC2926940 (Nature structural & molecular biology, 2010).

T1: Abl SH2 domain, His-tagged (immobilised for SPR) (human, UniProt P00519-2)
T1 sequence: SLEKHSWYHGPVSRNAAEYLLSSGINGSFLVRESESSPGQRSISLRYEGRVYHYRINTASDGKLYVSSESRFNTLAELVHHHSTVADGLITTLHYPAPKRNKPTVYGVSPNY


How the values were obtained:
[1] = target: Abl SH2 domain, His-tagged (immobilised for SPR) (human) (UniProt P00519); assay: SPR
[2] = target: c-Jun phosphopeptide (Homo sapiens) (UniProt P05412); conditions: cited from earlier work
c-Jun phosphopeptide (Homo sapiens), sequence (P05412 whole entry, the tested form may be a part): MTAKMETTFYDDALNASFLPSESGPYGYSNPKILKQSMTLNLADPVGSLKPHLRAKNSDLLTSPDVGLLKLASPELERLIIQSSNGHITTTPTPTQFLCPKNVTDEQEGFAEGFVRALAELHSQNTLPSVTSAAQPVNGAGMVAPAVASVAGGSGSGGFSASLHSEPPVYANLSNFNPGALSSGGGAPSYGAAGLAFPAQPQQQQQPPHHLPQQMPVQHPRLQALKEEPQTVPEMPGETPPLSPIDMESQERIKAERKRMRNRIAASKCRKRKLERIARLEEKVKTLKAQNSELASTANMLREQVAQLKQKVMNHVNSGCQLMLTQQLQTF

[3] = target: Abl SH2 domain spotted on the SH2 microarray (human); assay: peptide or protein array
[4] = target: Abl2 (Arg) SH2 domain spotted on the SH2 microarray (UniProt P42684); assay: peptide or protein array
Abl2 (Arg) SH2 domain spotted on the SH2 microarray, sequence (P42684 173-263): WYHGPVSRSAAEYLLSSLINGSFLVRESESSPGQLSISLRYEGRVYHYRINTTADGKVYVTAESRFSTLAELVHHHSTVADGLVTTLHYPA

[5] = target: Blk SH2 domain spotted on the SH2 microarray (UniProt P51451); assay: peptide or protein array
Blk SH2 domain spotted on the SH2 microarray, sequence (P51451 124-220): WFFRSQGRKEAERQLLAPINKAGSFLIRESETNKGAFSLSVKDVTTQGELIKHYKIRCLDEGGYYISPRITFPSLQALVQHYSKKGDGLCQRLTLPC

[6] = target: Grb7 SH2 spotted on the SH2 microarray (UniProt Q14451); assay: peptide or protein array
Grb7 SH2 spotted on the SH2 microarray, sequence (Q14451 431-527): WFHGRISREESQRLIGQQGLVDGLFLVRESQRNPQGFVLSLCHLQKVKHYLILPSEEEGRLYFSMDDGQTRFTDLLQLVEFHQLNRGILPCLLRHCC

[7] = target: tandem SH2 domains of Syk spotted on the SH2 microarray; assay: peptide or protein array
[8] = target: T1, Abl SH2 domain, His-tagged (immobilised …); assay: SPR

| Molecule | ΔΔG of binding against HA4 [1] | ΔΔG of binding against HA4 [8] | further results |
| --- | --- | --- | --- |
| monobody HA4 (designed binder) |  |  | Kd [1]: 7 nM |
| Abl SH2 (from UniProt P00519) |  |  | Kd [2]: 7000 nM |
| monobody HA4 labelled with DyLight 800 (designed binder) |  |  | Kd [3]: 22 nM; Kd [4]: 18 nM; Kd [5]: 109 nM; Kd [6]: 169 nM; Kd [7]: 28 nM |
| HA4_(Y87A) (designed binder) GSSVSSVPTKLEVVAATPTSLLISWDAPMSSSSVYYYRITYGETGGNSPVQEFTVPYSSSTATISGLSPGVDYTITVYAWGEDSAGAMFMYSPISINYRTC |  | ≥ 3.8 kcal/mol |  |
| HA4 W80A (designed binder) GSSVSSVPTKLEVVAATPTSLLISWDAPMSSSSVYYYRITYGETGGNSPVQEFTVPYSSSTATISGLSPGVDYTITVYAAGEDSAGYMFMYSPISINYRTC |  | ≥ 3.8 kcal/mol |  |

Further lines, with some results ahead:

| ΔΔG of binding against HA4 [1] | ΔΔG of binding against HA4 [8] | Molecule | further results |
| --- | --- | --- | --- |
| 0.8 kcal/mol |  | HA4 Y35A (designed binder) |  |
| 2.2 kcal/mol |  | HA4 R38A (designed binder) |  |
| 2.4 kcal/mol |  | HA4 E52A (designed binder) |  |
|  | ≥ 3.8 kcal/mol | HA4 Y36A (designed binder) GSSVSSVPTKLEVVAATPTSLLISWDAPMSSSSVYAYRITYGETGGNSPVQEFTVPYSSSTATISGLSPGVDYTITVYAWGEDSAGYMFMYSPISINYRTC |  |
|  | ≥ 3.8 kcal/mol | HA4 M88A (designed binder) GSSVSSVPTKLEVVAATPTSLLISWDAPMSSSSVYYYRITYGETGGNSPVQEFTVPYSSSTATISGLSPGVDYTITVYAWGEDSAGYAFMYSPISINYRTC |  |
